This is an account of results in article PMC7337490, “Molecular basis of MKLP2-dependent Aurora B transport from chromatin to the anaphase central spindle”.

Details in all cases: protein: recombinant;recombinant;recombinant; tags: N-terminal His (tag cleavage stated for complex);;His6-GST, cleaved by HRV 3C; copies: 1;1;1; label: Alexa 488 on forward strand; blunt
Data set [1] concerns the target survivin;borealin 10-109;INCENP 1-80 (CPI80) (human;human;human, UniProt O15392;Q53HL2;Q9NQS7 1-142;10-109;1-80, ||). As to the kind of experiment: MST; 100 mM NaCl, 20 mM Tris-HCl pH 7.4, 1 mM DTT, 2 h on ice; MST 0.04 uM duplex, 0.1-200 uM protein; EMSA 0.15 pmol plasmid in 20 ul, 0.8% agarose. For orientation: In EMSA bound probe runs differently from free probe, usually more slowly.

Data set [2] addresses survivin;borealin 10-109;INCENP 1-80 T59E (CPI80T59E) (human;human;human, UniProt O15392;Q53HL2;Q9NQS7 1-142;10-109;1-80, ||T59E). As to the kind of experiment: MST; Kd not calculable per legend; 100 mM NaCl, 20 mM Tris-HCl pH 7.4, 1 mM DTT, 2 h on ice; MST 0.04 uM duplex, 0.1-200 uM protein; EMSA 0.15 pmol plasmid in 20 ul, 0.8% agarose.
Data set [3] deals with survivin;borealin 10-109;INCENP 1-80 RRKKRR (CPI80RRKKRR) (human;human;human, UniProt O15392;Q53HL2;Q9NQS7 1-142;10-109;1-80, ||R65A;R66A;K67A;K68A;R69A;R70A). Briefly: MST; up to 200 uM; 100 mM NaCl, 20 mM Tris-HCl pH 7.4, 1 mM DTT, 2 h on ice; MST 0.04 uM duplex, 0.1-200 uM protein; EMSA 0.15 pmol plasmid in 20 ul, 0.8% agarose.
Chain of survivin;borealin 10-109;INCENP 1-80 RRKKRR (CPI80RRKKRR) (O15392 whole entry, chain 1 of 3): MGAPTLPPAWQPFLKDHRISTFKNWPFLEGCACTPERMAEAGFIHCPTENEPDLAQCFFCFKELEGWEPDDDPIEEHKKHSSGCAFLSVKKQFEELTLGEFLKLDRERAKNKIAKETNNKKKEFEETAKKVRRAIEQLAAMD
Chain of survivin;borealin 10-109;INCENP 1-80 RRKKRR (CPI80RRKKRR) (Q53HL2 10-109, stated change not applied, chain 2 of 3): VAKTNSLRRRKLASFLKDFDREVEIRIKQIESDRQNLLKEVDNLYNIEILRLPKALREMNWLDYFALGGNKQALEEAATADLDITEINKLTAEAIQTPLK
Chain of survivin;borealin 10-109;INCENP 1-80 RRKKRR (CPI80RRKKRR) (Q9NQS7 1-80 R65A/R66A/K67A/K68A/R69A/R70A, chain 3 of 3): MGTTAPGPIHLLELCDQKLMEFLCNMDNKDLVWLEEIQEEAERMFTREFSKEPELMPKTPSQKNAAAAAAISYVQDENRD
Data set [4] addresses survivin;borealin 10-109;INCENP 1-58 (CPI58) (human;human;human, UniProt O15392;Q53HL2;Q9NQS7 1-142;10-109;1-58, ||). The description is as above.

Chain of survivin;borealin 10-109;INCENP 1-80 T59E (CPI80T59E) (O15392 whole entry, chain 1 of 3): as the sequence (O15392 whole entry, chain 1 of 3) above
Chain of survivin;borealin 10-109;INCENP 1-80 T59E (CPI80T59E) (Q53HL2 10-109, chain 2 of 3): as the sequence (Q53HL2 10-109, stated change not applied, chain 2 of 3) above
Chain of survivin;borealin 10-109;INCENP 1-80 T59E (CPI80T59E) (Q9NQS7 1-80 T59E, chain 3 of 3): as the sequence (Q9NQS7 1-80 R65A/R66A/K67A/K68A/R69A/R70A, chain 3 of 3) above, with T59E, A65R, A66R, A67K, A68K, A69R, A70R counted along it
Chain of survivin;borealin 10-109;INCENP 1-58 (CPI58) (O15392 whole entry, chain 1 of 3): as the sequence (O15392 whole entry, chain 1 of 3) above
Chain of survivin;borealin 10-109;INCENP 1-58 (CPI58) (Q53HL2 10-109, chain 2 of 3): as the sequence (Q53HL2 10-109, stated change not applied, chain 2 of 3) above
Chain of survivin;borealin 10-109;INCENP 1-58 (CPI58) (Q9NQS7 1-58, chain 3 of 3): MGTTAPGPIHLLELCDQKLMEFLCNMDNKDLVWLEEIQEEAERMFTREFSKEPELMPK
Chain of survivin;borealin 10-109;INCENP 1-80 (CPI80) (O15392 whole entry, chain 1 of 3): as the sequence (O15392 whole entry, chain 1 of 3) above
Chain of survivin;borealin 10-109;INCENP 1-80 (CPI80) (Q53HL2 10-109, chain 2 of 3): as the sequence (Q53HL2 10-109, stated change not applied, chain 2 of 3) above
Chain of survivin;borealin 10-109;INCENP 1-80 (CPI80) (Q9NQS7 1-80, chain 3 of 3): as the sequence (Q9NQS7 1-80 R65A/R66A/K67A/K68A/R69A/R70A, chain 3 of 3) above, with A65R, A66R, A67K, A68K, A69R, A70R counted along it

B1: non-alpha-satellite 40 bp (dsDNA)
DNA 1: ATTCCATGGCACCGTCAAGGCTGAGAACGGGAAGCTTGTC
DNA 2: GACAAGCTTCCCGTTCTCAGCCTTGACGGTGCCATGGAAT
For B1, the Kd (in general, the equilibrium constant for the complex coming apart) in data set [1] turned out to be 29.7 ± 1.6 µM. Also, the binding signal in data set [2] was ~2 fold lower affinity than CPI80. The binding result in data set [3] and in data set [4] was “no binding” each time.

B2: centromeric alpha-satellite consensus 40 bp (dsDNA)
DNA 1: ATTCAACTCACAGAGTTGAACCTTCCTTTTCATAGAGCAG
DNA 2: CTGCTCTATGAAAAGGAAGGTTCAACTCTGTGAGTTGAAT
For B2, the Kd in data set [1] came out at 23.6 ± 1.6 µM. The binding signal in data set [2] is ~2 fold lower affinity than CPI80. Besides, the binding result in data set [3] and in data set [4] was “no binding” each time.
